Reference: publication PMC7235295, “Cytoplasmic TDP43 Binds microRNAs: New Disease Targets in Amyotrophic Lateral Sclerosis”

Target: TDP43 (natively folded full-length, ab224788) (UniProt Q13148 1-414)
Experiment: ELISA (immobilized miRNA titration, EC50); 5 nM TDP43; AC/TG nonspecific oligo 1 ug/ml; EMSA: 14 mM Tris pH 8.0, 35 mM KCl, 14 mM NaCl, 1.4 mM MgCl2, 14% glycerol, 0.7 mM DTT, 30 min RT, 5 nM RNA, gel at 4 C; ELISA: 20 mM HEPES pH 7.5, 150 mM NaCl, 1.5 mM MgCl2, 0.05% Tween 20, 0.5 mM DTT, 1 ug/ml AC/TG oligo, 0.2% BSA, 12 h 4 C
Conditions: protein: commercial; label: 3'-biotin; single strand

Chain of TDP43 (natively folded full-length, ab224788) (Q13148 whole entry): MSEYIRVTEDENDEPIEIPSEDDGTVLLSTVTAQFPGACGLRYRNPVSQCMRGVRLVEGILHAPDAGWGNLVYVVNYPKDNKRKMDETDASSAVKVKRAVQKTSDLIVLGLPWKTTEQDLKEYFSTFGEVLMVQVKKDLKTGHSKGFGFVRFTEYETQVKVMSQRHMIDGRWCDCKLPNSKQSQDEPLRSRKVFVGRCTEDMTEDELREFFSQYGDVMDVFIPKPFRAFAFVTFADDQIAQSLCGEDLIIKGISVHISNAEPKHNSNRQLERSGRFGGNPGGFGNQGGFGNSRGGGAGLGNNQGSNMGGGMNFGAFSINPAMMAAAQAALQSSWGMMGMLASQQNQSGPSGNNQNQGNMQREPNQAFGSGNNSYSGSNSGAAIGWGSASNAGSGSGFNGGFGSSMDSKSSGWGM

Row | Binder | apparent K (half saturation) [nM]
1 | AAUGGCGCCACUAGGGUUGUG (ssRNA) [miR-652-3p] | 6.41
2 | UGAGUGUGUGUGUGUGAGUGUGU (ssRNA) [miR-574-5p (ELISA)] | 2.84
3 | UUCCCUUUGUCAUCCUAUGCCU (ssRNA) [miR-204-5p] | 37.7
